Numbering of substitutions follows the chain as printed. Where two headings read alike, the source gives them in different places.
T1: rabTFPI K1K2 (rabbit, limits assumed)
T1 construct: also called Rabbit TFPI K1K2; rabbit TFPI
T1 chain: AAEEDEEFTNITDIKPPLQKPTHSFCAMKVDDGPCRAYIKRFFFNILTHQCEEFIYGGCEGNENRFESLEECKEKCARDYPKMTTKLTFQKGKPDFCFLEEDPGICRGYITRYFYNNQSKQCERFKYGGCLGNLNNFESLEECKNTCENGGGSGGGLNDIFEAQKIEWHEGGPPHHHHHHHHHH

B1: 4D8.b1 (antibody, mouse IgG1, kappa)
light: DIVMTQSHKFMSTSVGDRVSITCKASQDVHTAVAWYQQKPGQSPRLLIYWASTRHTGVPDRFTGCGSGTDYTLTISSVQAEDLALYYCQQHYTTPYTFGGGTKLEMKADAAPTVSIFPPSSEQLTSGGASVVCFLNNFYPKDINVKWKIDGSERQNGVLNSWTDQDSKDSTYSMSSTLTLTKDEYERHNSYTCEATHKTSTSPIVKSFNRNEC
heavy: EVLLQQSGPELVKPGASVKIPCKASGYTFTDYNLDWVKQSHGKSLEWIGDINPINGATLYNQKFKGKATLTVDQSSSTAYMELRSLTSEDTAVYYCSIYYGDYDAMDYWGQGASVTVSSAKTTPPSVYPLAPGSAAQTNSMVTLGCLVKGYFPEPVTVTWNSGSLSSGVHTFPAVLQSDLYTLSSSVTVPSSTWPSETVTCNVAHPASSTKVDKKIVPRDCGCKPCICTVPEVSSVFIFPPKPKDVLTITLTPKVTCVVVDISKDDPEVQFSWFVDDVEVHTAQTQPREEQFNSTFRSVSELPIMHQDWLNGKEFKCRVNSAAFPAPIEKTISKTKGRPKAPQVYTIPPPKEQMAKDKVSLTCMITDFFPEDITVEWQWNGQPAENYKNTQPIMDTDGSYFVYSKLNVQKSNWEAGNTFTCSVLHEGLHNHHTEKSLSHSPGK
notes: Mouse monoclonal antibody purified from a hybridoma subclone; also called mouse 4d8.b1; TFPI 4D8
B2: 4D8-Vk1.0 × VH1.0 (antibody, human IgG1, kappa, V domains shown)
VH: EVQLVESGGGLVQPGGSLRLSCAASGYTFTDYNLDWVRQAPGKGLEWVADINPINGATLYNQKFKGRFTISRDNAKNSLYLQMNSLRAEDTAVYYCARYYGDYDAMDYWGQGTLVTVSS
VL: DIQMTQSPSSLSASVGDRVTITCKASQDVHTAVAWYQQKPGKAPKLLIYWASTRHTGVPSRFSGSGSGTDFTLTISSLQPEDFATYYCQQHYTTPYTFGQGTKLEIKR
notes: Humanized 4D8 variant
B3: 4D8-Vk1.0 × VH1.1 (antibody, human IgG1, kappa, V domains shown)
VH: B2 VH with A49G, F68A, R72V, N74Q, L79A
VL: B2 VL
notes: Humanized 4D8 variant
B4: 4D8-Vk1.0 × VH1.2 (antibody, human IgG1, kappa, V domains shown)
VH: B2 VH with A49G
VL: B2 VL
notes: Humanized 4D8 variant
B5: 4D8-Vk1.0 × VH1.3 (antibody, human IgG1, kappa, V domains shown)
VH: B2 VH with F68A
VL: B2 VL
notes: Humanized 4D8 variant
B6: 4D8-Vk1.0 × VH1.4 (antibody, human IgG1, kappa, V domains shown)
VH: B2 VH with N74Q
VL: B2 VL
notes: Humanized 4D8 variant
B7: 4D8-Vk1.1 × VH1.0 (antibody, human IgG1, kappa, V domains shown)
VH: B2 VH
VL: B2 VL with F71Y
notes: Humanized 4D8 variant

What was measured:
rabTFPI K1K2 [1] = target: T1, rabTFPI K1K2; test: ELISA, biotinylated TFPI on streptavidin plate
Method: (§1) Purified anti-TFPI antibodies were diluted to 1 ug/ml in ELISA assay buffer, then serially diluted three-fold to generate an eight-point dilution series. The diluted antibodies were added at a volume of 100 uL per well. The plates were incubated at room temperature for 2 hours. After washing the plates with PBS/0.05% Tween 20, the plates were incubated with a goat anti-mouse IgG-Fc polyclonal antibody conjugated with horseradish peroxidase (Pierce) at 1:10,000 dilution. After 1 hour of incubation, bound antibody was detected with the addition of a TMB substrate solution. Absorbances were read a 450 nm, and the data were analyzed by GraphPad Prism software.

humTFPI K1K2 [2] = target: T2, humTFPI K1K2 (human); test: ELISA, biotinylated TFPI on streptavidin plate
T2 construct: Biotinylated on the AviTag for ELISA; also called Human TFPIα K1K2; humTFPI K1K2-aviHis10
Method: as §1

rabTFPI K1K2 [3] = target: T1, rabTFPI K1K2; test: SPR, antibody ligand, TFPI analyte
humTFPI K1K2 [4] = target: T2, humTFPI K1K2; test: SPR, antibody ligand, TFPI analyte
humTFPI K1K2 [5] = target: T2, humTFPI K1K2; test: cell-based or functional assay
humTFPI K1K2 [6] = target: T2, humTFPI K1K2; test: cell-based or functional assay; remark: listed apart in the source
rabTFPI K1K2 [7] = target: T1, rabTFPI K1K2; test: ELISA, biotinylated TFPI on streptavidin plate
humTFPI K1K2 [8] = target: T2, humTFPI K1K2; test: ELISA, biotinylated TFPI on streptavidin plate; remark: listed apart in the source
humTFPI K1K2 [9] = target: T2, humTFPI K1K2; test: SPR, antibody ligand, TFPI analyte; remark: listed apart in the source
Method: The flow cells were activated by injecting a 1:1 mixture of 400 mM 1-Ethyl-3-(3-dimethylaminopropyl) carbodiimide hydrochloride (EDC) and N-hydroxysuccinimide (NHS) for 7 minutes at a flow rate of 10 μl/minute. Anti-human IgG antibody was diluted to 25 μg/ml in 10 mM Sodium Acetate pH 5.0 and injected over all flow cells for 7 minutes at 10 ul/minute. All flow cells were blocked with 1 M Ethanolamine-HCL (ETH) for 7 minutes at 10 μl/minute. Final immobilization level of the capture antibody was approximately 10,000 resonance units (RU). The running buffer for immobilization and kinetics was 10 mM HEPES pH 7.4, 150 mM NaCl, 3 mM EDTA, 0.05% (v/v) Tween-20 (HBS-EP+). […] Flow cell 1 was used as a reference surface. […] At the end of each cycle, the entire anti-IgG surface was regenerated by a 60 second pulse of 3 M MgCl2. Kinetic assays were conducted at 25° C. at a collection rate of 10 Hz on a BIAcore T200 instrument (GE Healthcare). Rate constants and affinities were determined by fitting the data to a 1:1 model in BIAcore T200 Evaluation software version 1.0 (GE).

Binder | EC50 (rabTFPI K1K2 [7]) | EC50 (humTFPI K1K2 [8]) | Kd (humTFPI K1K2 [9]) | koff (humTFPI K1K2 [9]) | kon (humTFPI K1K2 [9]) | further results
B1 |  |  |  |  |  | EC50 (rabTFPI K1K2 [1]): 0.0976 nM; EC50 (humTFPI K1K2 [2]): 0.0959 nM; Kd (rabTFPI K1K2 [3]): 0.63 nM; koff (rabTFPI K1K2 [3]): 0.00126 s⁻¹; kon (rabTFPI K1K2 [3]): 2.01e+06 M⁻¹ s⁻¹; Kd (humTFPI K1K2 [4]): 1.19 nM; koff (humTFPI K1K2 [4]): 0.00114 s⁻¹; kon (humTFPI K1K2 [4]): 958000 M⁻¹ s⁻¹; FXa EC50 (humTFPI K1K2 [5]): 4.15 nM; FXa-FVIIa EC50 (humTFPI K1K2 [5]): 3.5 nM; FXa EC50 (humTFPI K1K2 [6]): 5.9 nM; FXa-FVIIa EC50 (humTFPI K1K2 [6]): 6.67 nM
B2 | 0.0785 nM | 0.0772 nM | 6.94 nM | 0.00047 s⁻¹ | 67700 M⁻¹ s⁻¹ | 
B3 | 0.0705 nM | 0.0884 nM | 25.4 nM | 0.00154 s⁻¹ | 60600 M⁻¹ s⁻¹ | 
B4 | 0.0422 nM | 0.0758 nM | 0.695 nM | 0.000165 s⁻¹ | 238000 M⁻¹ s⁻¹ | 
B5 | 0.0556 nM | 0.0822 nM | 7.19 nM | 0.000571 s⁻¹ | 79500 M⁻¹ s⁻¹ | 
B6 | 0.0426 nM | 0.056 nM | 11.1 nM | 0.000835 s⁻¹ | 75500 M⁻¹ s⁻¹ | 
B7 | 0.0451 nM | 0.0429 nM |  |  |  | 

From patent US20210101998A1 (Pfizer, published 2021)
